# According to the supplement of paper PMC9112550, “Optimization of the antimicrobial peptide Bac7 by deep mutational scanning” (BMC Biology, 2022):
# Test system: Escherichia coli TOP10
# Test: shrunken log2 fold change of peptide-encoding DNA abundance (4.5 h post-induction vs induction); higher = less antimicrobial activity (less host growth inhibition)
# Conditions: time post-induction: 4.5 h; library: site-saturation at positions 5, 18, 19, 20
# 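Also: peptides expressed intracellularly from a pBAD plasmid library in pooled LB shake-flask culture, induced with 0.3% L-arabinose, DNA abundance read by NGS, three biological replicates, DESeq2 with apeglm shrinkage.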
row,Sequence,shrunken log2 fold change
1,RRIRCRPPRLPRPRPRPNIAPRP,-0.275
2,RRIRLRPPRLPRPRPRPKVPPRP,0.0509
3,RRIRNRPPRLPRPRPRPLACPRP,0.118
4,RRIRCRPPRLPRPRPRPLRPPRP,0.815
5,RRIRNRPPRLPRPRPRPMKKPRP,0.00302
6,RRIRKRPPRLPRPRPRPSKYPRP,-0.00772
7,RRIRERPPRLPRPRPRPDCPPRP,-0.559
8,RRIRCRPPRLPRPRPRPNWVPRP,-0.279
9,RRIRCRPPRLPRPRPRPIQMPRP,-0.0491
10,RRIRGRPPRLPRPRPRPKGQPRP,0.184
11,RRIRKRPPRLPRPRPRPMHYPRP,-0.0252
12,RRIRLRPPRLPRPRPRPHPKPRP,-0.0255
13,RRIRFRPPRLPRPRPRPHVSPRP,-0.135
14,RRIRMRPPRLPRPRPRPDCSPRP,0.172
15,RRIRTRPPRLPRPRPRPQYAPRP,-0.317
16,RRIRWRPPRLPRPRPRPSKCPRP,-0.00209
17,RRIRARPPRLPRPRPRPYWQPRP,0.046
18,RRIRHRPPRLPRPRPRPQRWPRP,0.00359
19,RRIRGRPPRLPRPRPRPDIEPRP,0.735
20,RRIRSRPPRLPRPRPRPWHQPRP,-0.25
21,RRIRLRPPRLPRPRPRPPQLPRP,0.206
22,RRIRQRPPRLPRPRPRPTAVPRP,0.165
23,RRIRDRPPRLPRPRPRPFPAPRP,0.0806
24,RRIRNRPPRLPRPRPRPRQWPRP,0.299
25,RRIRSRPPRLPRPRPRPPCPPRP,0.319

row,Sequence,shrunken log2 fold change
1,RRIRQRPPRLPRPRPRPPQDPRP,1.1
2,RRIRLRPPRLPRPRPRPCAFPRP,-0.295
3,RRIRSRPPRLPRPRPRPISQPRP,-0.387
4,RRIRRRPPRLPRPRPRPVMPPRP,0.338
5,RRIRPRPPRLPRPRPRPPFGPRP,0.432
6,RRIRLRPPRLPRPRPRPSMMPRP,-0.358
7,RRIRFRPPRLPRPRPRPYQAPRP,-0.303
8,RRIRARPPRLPRPRPRPHVFPRP,0.0326
9,RRIRIRPPRLPRPRPRPNKRPRP,-0.368
10,RRIRGRPPRLPRPRPRPQNIPRP,-0.603
11,RRIRSRPPRLPRPRPRPTMYPRP,-0.247
12,RRIRERPPRLPRPRPRPNSKPRP,-0.863
13,RRIRGRPPRLPRPRPRPCDKPRP,0.297
14,RRIRPRPPRLPRPRPRPAICPRP,0.0446
15,RRIRNRPPRLPRPRPRPRTIPRP,-0.221
16,RRIRLRPPRLPRPRPRPRFDPRP,-0.053
17,RRIRWRPPRLPRPRPRPPRYPRP,0.374
18,RRIRVRPPRLPRPRPRPMYNPRP,-0.315
19,RRIRWRPPRLPRPRPRPDGAPRP,0.227
20,RRIRTRPPRLPRPRPRPCYMPRP,-0.156
21,RRIRARPPRLPRPRPRPPDLPRP,0.829
22,RRIRWRPPRLPRPRPRPMDMPRP,-0.0589
23,RRIRERPPRLPRPRPRPPHWPRP,0.223
24,RRIRIRPPRLPRPRPRPVRRPRP,0.377
25,RRIRPRPPRLPRPRPRPKVGPRP,0.172

row,Sequence,shrunken log2 fold change
1,RRIRARPPRLPRPRPRPLWYPRP,-0.278
2,RRIRWRPPRLPRPRPRPCTCPRP,0.0236
3,RRIRTRPPRLPRPRPRPFTWPRP,-0.308
4,RRIRARPPRLPRPRPRPWNDPRP,-0.158
5,RRIRWRPPRLPRPRPRPIQEPRP,-0.0126
6,RRIRYRPPRLPRPRPRPHTLPRP,-0.959
7,RRIRMRPPRLPRPRPRPVISPRP,-0.28
8,RRIRYRPPRLPRPRPRPAADPRP,-0.0866
9,RRIRIRPPRLPRPRPRPAVPPRP,-0.181
10,RRIRERPPRLPRPRPRPLFFPRP,-0.225
11,RRIRKRPPRLPRPRPRPQTMPRP,0.0588
12,RRIRSRPPRLPRPRPRPVGYPRP,0.093
13,RRIRLRPPRLPRPRPRPKFKPRP,-0.147
14,RRIRPRPPRLPRPRPRPMQTPRP,0.119
15,RRIRPRPPRLPRPRPRPTCYPRP,-0.127
16,RRIRLRPPRLPRPRPRPWFVPRP,-0.399
17,RRIRWRPPRLPRPRPRPGFEPRP,0.427
18,RRIRVRPPRLPRPRPRPQNLPRP,-0.672
19,RRIRKRPPRLPRPRPRPPMFPRP,0.269
20,RRIRLRPPRLPRPRPRPENVPRP,-0.0483
21,RRIRVRPPRLPRPRPRPCPNPRP,-0.245
22,RRIRYRPPRLPRPRPRPCISPRP,0.0212
23,RRIRNRPPRLPRPRPRPRCGPRP,0.0586
24,RRIRYRPPRLPRPRPRPQKVPRP,-0.209
25,RRIRARPPRLPRPRPRPSRPPRP,0.612
